Measurements published in patent publication US20250051471A1 (WILLIAM ROBERT ARATHOON LIVING TRUST DATED AUGUST 29 2016, published 2025).
One block for each binder: values may come before it.

Assays:
human ABCB1 on cells [1] = biological target: T1, human ABCB1 on cells (human, UniProt P08183 1-1280); experiment: receptor occupancy assay on A2780ADR cells, curve 'BiS-Direct Binding' (PE anti-human IgG Fc); the cells carry both antigens, the target is named after the receptor whose free signal falls in the same panel
T1 construct: whole, on cells; also called MDR1; Pgp
Description: Receptor Occupancy (RO) is a measure of the binding of a biotherapeutic to its cellular target(s). Common detection reagents include the drug itself and one or more antibodies binding to the same epitope as the drug. In the present experiment, anti-ABCB1 and anti-CD47 antibodies binding the respective epitopes of the corresponding ABCB1xCD47 bispecific antibodies were used, using the A2780ADR (ovarian) drug resistant cell line. […] Antibodies were prepared by 1:3 serial dilutions in flow cytometry buffer starting from 200 μg/mL (2× final concentration). 50 μL of diluted antibodies were transferred to the cell mixture and the plates incubated at 4° C. for 30 minutes. […] Following two washes with flow cytometry buffer, cells were resuspended in 100 µL of flow cytometry buffer and separated in two samples. […] The two samples were incubated at 4° C. for 30 minutes. Following two washes with flow cytometry buffer, the cells from each sample were resuspended in flow cytometry buffer, plus DAPI, to gate out dead cells, and analyzed using an Attune NXT (ThermoFisher Scientific) flow cytometer.

human ABCB1 on cells [2] = biological target: T1, human ABCB1 on cells; experiment: flow cytometry, DX5 WT cells (carry both ABCB1 and CD47), MFI
human ABCB1 on cells [3] = biological target: T1, human ABCB1 on cells; experiment: flow cytometry, DX5 CD47 knock-out cells ('DX5 KT14 KO'), MFI
human CD47 on cells [4] = biological target: T2, human CD47 on cells (human, UniProt Q08722 19-323); experiment: flow cytometry, DX5 B1 KO (ABCB1 knock-out) cells, % positive cells
T2 construct: also called hCD47; CD47 antigen

[5] = biological target: T3, cynomolgus CD47 on red blood cells (cynomolgus, UniProt A0A5F8AK49 19-323 (rhesus entry)); experiment: flow cytometry on cynomolgus RBC, donor Cy747
T3 construct: whole, on cells; The assay target is the red blood cell; also called cynomolgus Red Blood Cells
Description: (§1) Antibody binding to human and cynomolgus RBC was assessed by flow cytometry. […] RBC were prepared by centrifugation of whole blood aliquots (0.5 mL) for 5 min at 500xg. Supernatant (plasma) was removed, and RBC washed 3 times in D-PBS+1 mM EDTA. After the final wash, the RBC were resuspended in D-PBS+1 mM EDTA to a final volume of 0.5 mL. Washed RBC were then diluted in flow cytometry buffer (D-PBS+2% FBS+0.05% sodium azide) to 2% and dispensed at 50 pL/well into 96-well plates. An equivalent volume (50 pL) of antibody serially diluted in flow cytometry buffer to 2× final was added to the RBC, and the mixture incubated for 1 hour at room temperature. […] After 20 minutes at room temperature RBC were washed twice, resuspended in flow cytometry buffer and analyzed using an Invitrogen™ Attune™ NXT flow cytometer. […] Left panel, RBC are gated (R1) based on forward and side scatter. Middle panel, a second gate (R2) is applied to eliminate any remaining doublets or aggregates. Right panel, fluorescence of the R2 gated cells is assessed and a final gate (R3) is set using unstained RBC. Cells falling in the R3 gate are defined as “positive” for binding and reported as the percent (of R2 gated cells) that fall in the R3 gate. The results are presented at percent positive which represents the percent of RBC in the R3 gate.

human CD47 on cells [6] = biological target: T2, human CD47 on cells; experiment: flow cytometry on human RBC, donor D835
Description: as §1

[7] = biological target: T3, cynomolgus CD47 on red blood cells; experiment: flow cytometry on cynomolgus RBC, donor Cy745
Description: as §1

human CD47 on cells [8] = biological target: T2, human CD47 on cells; experiment: flow cytometry on red blood cells (sentence follows Table 9, human RBC)
[9] = biological target: T3, cynomolgus CD47 on red blood cells; experiment: flow cytometry on cynomolgus RBC, donor Cy746
Description: as §1

human CD47 on cells [10] = biological target: T2, human CD47 on cells; experiment: flow cytometry on human RBC, donor D837
Description: as §1

human CD47 on cells [11] = biological target: T2, human CD47 on cells; experiment: flow cytometry on human RBC, donor D834
Description: as §1

[12] = biological target: T3, cynomolgus CD47 on red blood cells; experiment: flow cytometry on cynomolgus RBC, donor Cy744
Description: as §1

human CD47 on cells [13] = biological target: T2, human CD47 on cells; experiment: flow cytometry on human RBC, donor D836
Description: as §1

EC50 (read off the curve) (human ABCB1 on cells [1]): ~200 nM
EC50 (read off the curve) (human ABCB1 on cells [2]): ~10 nM
EC50 (read off the curve) (human ABCB1 on cells [3]): ~20 nM
binding result (human CD47 on cells [4]): binds
B1: 15D3 hmz HIR2/KT14 KBR1/MRK16v4b (bispecific antibody, IgG1)
heavy 1: EVQLVESGGVVVQPGGSLRLSCAASGFTFSRYTMSWVRQAPGKGLEWVATISSGGGNTYYPDSVKGRFTVSRDNSKNSLYLQMNSLRTEDTALYYCARYGAGDAWFAYWGQGTLVTVSSASTKGPSVFPLAPSSKSTSGGTAALGCLVKDYFPEPVTVSWNSGALTSGVHTFPAVLQSSGLYSLSSVVTVPSSSLGTQTYICNVNHKPSNTKVDKRVEPKSCDKTHTCPPCPAPELLGGPSVFLFPPKPKDTLMISRTPEVTCVVVDVSHEDPEVKFNWYVDGVEVHNAKTKPREEQYNSTYRVVSVLTVLHQDWLNGKEYKCKVSNKALPAPIEKTISKAKGQPREPQVCTLPPSREEMTKNQVSLSCAVKGFYPSDIAVEWESNGQPENNYKTTPPVLDSDGSFVLVSKLTVDKSRWQQGNVFSCSVMHEALHNHYTQKSLSLSPG
heavy 2: not shown
light: DIVMTQTPLSSPVTLGQPASISCRSSQSIVHSTGNTYLEWYQQKPGQPPRLLIYKISNRFSGVPDRFSGSGSGTDFTLKISRVEAEDVGVYYCFQASHFPRTFGQGTKLEIK
notes: Humanized ABCB1 x CD47 IgG1 bispecific with a common light chain; the kappa constant region comes from the general cloning description; not shown: human kappa constant light chain

% Positive [5]: 26.5%
% Positive (human CD47 on cells [6]): 0.4%
% Positive [7]: 2.2%
binding result (human CD47 on cells [8]): no binding
% Positive [9]: 15.1%
% Positive (human CD47 on cells [10]): 0.4%
% Positive (human CD47 on cells [11]): 0.7%
% Positive [12]: 0.7%
% Positive (human CD47 on cells [13]): 0.2%
B2: 15D3VHhuIgG1DD/KT14KK/B1.89v1.huL1(KV2)hmz (bispecific antibody)
heavy 1: not shown
heavy 2: not shown
light: DIVMTQSPLSLPVTPGEPASISCRSSQTIVHSNGNTYLEWYLQKPGQSPQLLIYKVSKRFSGVPDRFSGSGSGTDFTLKISRVEAEDVGVYYCFQASHFPRTFGQGTKLEIKRTVAAPSVFIFPPSDEQLKSGTASVVCLLNNFYPREAKVQWKVDNALQSGNSQESVTEQDSKDSTYSLSSTLTLSKADYEKHKVYACEVTHQGLSSPVTKSFNRGEC
notes: also called KB1-1421; 15D3VHhuIgG1DD/KT14KK/B1.89v1.huL1(KV2)hmzLC
